“Also recorded” adds a separate entry of the source.
Key:
[1] = test system: tau-K18 acetyltransferase activity (auto-acetylation); assay: Tau auto-acetylation filter binding assay, kinetic analysis; format: biochemical; details: tau-K18 proteins containing sequential deletions
Method: (§1) Reactions were assembled in 50 μl of reaction buffer containing 50 mM Tris pH 8.0, 100 μM EDTA, and 10% glycerol. Unless specifically noted, reactions contained 25 μM of either WT tau-K18 or tau-K18-2CA mutant. The reactions were initiated by the addition of [^3H]-acetyl-CoA (2.35 Ci mmol^−1, Perkin Elmer) at concentrations ranging from 2.5 μM to 1 mM, incubated at 37° C., and allowed to proceed for 1 hr (unless otherwise noted). Reactions were stopped by the addition of 10 μl of 3 mM CoA, and 25 μl of the reaction was then spotted to a P81 filter paper (Whatman), washed in 10 mM HEPES pH 7.5 three times, and dried using acetone. Incorporated [^3H]-acetyl-CoA was then measured using the Perkin Elmer Tri-Carb 2800TR Liquid Scintillation Analyzer, and the molar amount of acetyl groups incorporated into tau were calculated from a standard curve of the radiolabeled acetyl-CoA.

[2] = target: T1, tau-K18 acetyltransferase activity (auto-acetylation) (Homo sapiens, UniProt P10636); assay: as above; format: biochemical
T1 construct: made in house
T1 sequence (P10636 561-689 limits assumed): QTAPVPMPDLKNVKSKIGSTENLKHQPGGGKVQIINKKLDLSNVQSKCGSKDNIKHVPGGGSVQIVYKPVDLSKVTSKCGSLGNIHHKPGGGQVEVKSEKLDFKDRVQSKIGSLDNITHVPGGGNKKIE
Method: as §1

tubulin = assay: MT assembly light-scattering assay; format: biochemical; details: 30 μM tubulin, 40 μM tau proteins, 2 mM GTP
Method: (§2) Recombinant full-length T40, 4R-tau MT-binding domain K18, or tau fibrils were acetylated by incubation with [^14C]-labeled acetyl-CoA in the presence or absence of CBP. FIG. 1A illustrates that the reaction products were analyzed by SDS-PAGE and Coomassie blue staining followed by overnight radiographic exposure using STORM phosphor-imager software. FIG. 1B depicts the results of an experiment where T40 or K18 proteins were incubated with acetyl-CoA and/or recombinant CBP and reaction products were subjected to immunoblot analysis using a polyclonal anti-tau-specific antibody for MT repeat domain (E10) and an anti-acetyl-lysine antibody. FIG. 1C is a graph depicting the MT assembly activities of K18 proteins as evaluated in light-scattering assays. Tubulin monomers (30 μM) were mixed with 40 μM tau proteins in MT assembly buffer supplemented with 2 mM guanosine triphosphate. MT assembly was determined by monitoring absorbance every minute at 350 nm using a SpectraMax plate reader. […] FIG. 1D is a graph illustrating the results of experiments where Tau proteins (10 μM) were evaluated in fibrillization reactions using 10 μM heparin to induce assembly. […] Samples were analysed by SDS-PAGE and Coomassie staining to monitor fibril formation. FIG. 1F illustrates the results of experiments where four-hour time points from fibrillization reactions were analysed by negative-staining EM. […]

[3] = Heparin-induced tau fibrillization assay quantified by Thioflavin-T binding; format: biochemical; details: 10 μM tau proteins, 10 μM heparin, 4-h incubation
Method: as §2
Tau K18 protein was either mock acetylated or acetylated in vitro using acetyl-CoA substrate as indicated elsewhere herein. […] Protein concentrations were determined using the bicinchoninic acid protein assay (Pierce) with bovine serum albumin as the standard. Acetylated K18 and mock-treated K18 were assessed by a light-scattering assay as described elsewhere herein. […] The extent of fibrillization was assessed at different time points by ThT fluorescence assay, sedimentation analysis and negative staining EM as described elsewhere herein. For ThT fluorescence assay, ThT diluted in 100 mM glycine buffer (pH 8.5) was added and fluorometric readings were taken at 450 nm (excitation) and 510 nm (emission). […]

[4] = test system: K18-PL acetylation in QBI-293 cells; assay: Cell-based K18-PL acetylation assay in QBI-293 cells; details: C646 to block CBP/p300, 3MA-induced acetylation, overnight
HDAC6 = HDAC6 siRNA in HEK-T40 cells, immunoblotting; format: cell-based, human
Method: FIG. 7, comprising FIG. 7A through FIG. 7D, depicts the results of experiments which illustrate the characterization of the ac-K280 site-specific acetylated tau antibody. FIG. 7A illustrates the results of an experiment where recombinant WT-K18 or ΔK280-K18 proteins (1 μg) were incubated in the presence or absence of acetyl-CoA or CBP as indicated and K280 acetylation was determined by immunoblotting using anti-ac-K280 and a polyclonal antibody raised to exon 10 of tau protein (E10). FIG. 7B illustrates the results of an experiment where QBI-293 cells were co-transfected with WT-T40 tau or ΔK280-T40 mutant tau expression plasmids along with CBP to promote tau acetylation. 1, 2, and 5 μg total cell lysates were analyzed by western blotting using anti-ac-K280, total tau (T46), and GAPDH antibodies. […] Scale bar represents 50 μm. FIG. 7D illustrates the results of an experiment where control or HDAC6 siRNA expressing HEK-T40 cells were analyzed by immunoblotting using ac-K280, total tau, HDAC6, and GAPDH antibodies.
The longest human tau isoform (designated Tau-T40) was cloned into pCDNA5/TO vector (Invitrogen) and site-directed mutagenesis (Quikchange kit; Stratagene) was used to create K→Q or K→R mutations at residues K163, K280, K281, K369 as indicated. Indicated plasmids were transfected into either QBI-293 cells or stably expressing HEK-T40 cells using Fugene (Roche). […]

[5] = test system: 2N4R-tau and tau-K18 auto-acetylation activity; assay: Tau acetyltransferase inhibition studies (pre-incubation with cysteine blocking agents, tubulin or microtubules); format: biochemical; details: pre-incubated with 0.5 mM NEM or 4 mM IA
Method: FIG. 14, comprising FIGS. 14a-14c, is a series of images depicting the results of experiments showing that cysteine blocking agents inhibit tau-mediated acetyltransferase activity. […] FIG. 14c is an image showing bovine brain derived microtubule associated protein (MAP-rich) fractions containing all CNS tau isoforms that were evaluated in acetyltransferase assays in the presence of increased tubulin concentrations followed by immunoblotting with Ac-K280 and total tau (T46) antibodies.
Acetyltransferase assays using purified tau proteins were performed as previously described and subjected to autoradiography or immunoblotting using the following anti-tau antibodies: anti-tau polyclonal (Dako, A0024, 1:10,000), anti-acetyl lysine (Cell Signaling, #9441, 1:1000), anti-tau monoclonal (T46, 1:1000), anti-mouse tau (T49, 1:1000), anti-acetylated tau (Ac-K280, 1:1000), anti-acetylated tau (Ac-K369, 1:1000). For tau acetyltransferase inhibition studies, tau proteins were pre-incubated with 0.5 mM N-ethyl-maleimide (NEM), 4 mM iodoacetamide (IA), or increasing concentrations of either tubulin (5-10 μM) or pre-formed microtubules (5 μM). […] Reaction products were readily distinguished between 2N4R-tau (Mr ˜65 kD) and tau-K18 (Mr ˜15 kD) by immunoblotting using acetylated tau (Ac-K280) and total tau (E10) antibodies. […]

## tau-K18: recombinant tau fragment encompassing all four MT-binding repeats
[1]
  Km: 147 µM
[2]; auto-acetylation, this study
  Kcat [auto]: 8.3e-05 s⁻¹
[2]; auto-acetylation, this study, read-out: Km AcCoA [auto]
  Km: 147 µM
[2]; saturation plot against acetyl-CoA concentration
  turnover rate Kcat: 8.3e-05 s⁻¹
tubulin
  MT assembly (absorbance at 350 nm): promoted tubulin assembly into MTs
[3]
  fibrillization (ThT): did not fibrillize during the 4-h incubation period

## CC1=NN(c2ccc(C(=O)O)cc2)C(=O)/C1=C\c1ccc(-c2cc(C)c(C)cc2[N+](=O)[O-])o1 [C646]
[4]
  K18-PL acetylation levels: no effect on K18-PL acetylation levels

## HDAC6 small interfering RNA: HDAC6 siRNA (Invitrogen) 5′-AAAGUUGGAACUCUCACGGUGCAGC-3′ (SEQ ID NO: 1) (listed as RNA, chemistry not given here)
HDAC6
  levels of ac-K280: increased levels of ac-K280

## NC(=O)CI [iodoacetamide]
[5]
  2N4R-tau or tau-K18 auto-acetylation activity after pretreatment: abrogation of 2N4R-tau or tau-K18 auto-acetylation activity; also recorded: minimal acetyltransferase activity

## CCN1C(=O)C=CC1=O [N-ethyl-maleimide]
[5]
  2N4R-tau or tau-K18 auto-acetylation activity after pretreatment: abrogation of 2N4R-tau or tau-K18 auto-acetylation activity; also recorded: minimal acetyltransferase activity

— US20130251731A1, “Tau Acetylation in the Pathogenesis of Alzheimers Disease and Other Related Tauopathies” (THE TRUSTEES OF THE UNIVERSITY OF PENNSYLVANIA, priority 2012, published 2013)
